This passage reports stoichiometry N results from publication PMC3368264.

This experiment has as its target Leishmania major N5,N10-methylenetetrahydrofolate dehydrogenase/cyclohydrolase (Leishmania major (Friedlin strain)). As to the kind of experiment: SEC; Superdex 200 26/60 in buffer A (50 mM Tris-HCl, 250 mM NaCl, 20 mM imidazole, pH 7.5); main peak at approximately 65 kDa (subunit 31.9 kDa). On the technique in general: In gel filtration, larger molecules generally elute earlier.

“Leishmania major N5,N10-methylenetetrahydrofolate dehydrogenase/cyclohydrolase (enzyme)” registered a stoichiometry N of 2.

As a reminder, the stoichiometry N is the number of molecules, sites or subunits per partner or assembly.
